Tests used:
[1] = target: cytochrome c oxidase, regulatory competent, from bovine liver (bovine)
[2] = target: apoptotic protease-activating factor 1 (mouse (endogenous in Cytc knockout embryonic fibroblasts)) (UniProt O88879)
UniProt O88879, sequence (O88879 whole entry): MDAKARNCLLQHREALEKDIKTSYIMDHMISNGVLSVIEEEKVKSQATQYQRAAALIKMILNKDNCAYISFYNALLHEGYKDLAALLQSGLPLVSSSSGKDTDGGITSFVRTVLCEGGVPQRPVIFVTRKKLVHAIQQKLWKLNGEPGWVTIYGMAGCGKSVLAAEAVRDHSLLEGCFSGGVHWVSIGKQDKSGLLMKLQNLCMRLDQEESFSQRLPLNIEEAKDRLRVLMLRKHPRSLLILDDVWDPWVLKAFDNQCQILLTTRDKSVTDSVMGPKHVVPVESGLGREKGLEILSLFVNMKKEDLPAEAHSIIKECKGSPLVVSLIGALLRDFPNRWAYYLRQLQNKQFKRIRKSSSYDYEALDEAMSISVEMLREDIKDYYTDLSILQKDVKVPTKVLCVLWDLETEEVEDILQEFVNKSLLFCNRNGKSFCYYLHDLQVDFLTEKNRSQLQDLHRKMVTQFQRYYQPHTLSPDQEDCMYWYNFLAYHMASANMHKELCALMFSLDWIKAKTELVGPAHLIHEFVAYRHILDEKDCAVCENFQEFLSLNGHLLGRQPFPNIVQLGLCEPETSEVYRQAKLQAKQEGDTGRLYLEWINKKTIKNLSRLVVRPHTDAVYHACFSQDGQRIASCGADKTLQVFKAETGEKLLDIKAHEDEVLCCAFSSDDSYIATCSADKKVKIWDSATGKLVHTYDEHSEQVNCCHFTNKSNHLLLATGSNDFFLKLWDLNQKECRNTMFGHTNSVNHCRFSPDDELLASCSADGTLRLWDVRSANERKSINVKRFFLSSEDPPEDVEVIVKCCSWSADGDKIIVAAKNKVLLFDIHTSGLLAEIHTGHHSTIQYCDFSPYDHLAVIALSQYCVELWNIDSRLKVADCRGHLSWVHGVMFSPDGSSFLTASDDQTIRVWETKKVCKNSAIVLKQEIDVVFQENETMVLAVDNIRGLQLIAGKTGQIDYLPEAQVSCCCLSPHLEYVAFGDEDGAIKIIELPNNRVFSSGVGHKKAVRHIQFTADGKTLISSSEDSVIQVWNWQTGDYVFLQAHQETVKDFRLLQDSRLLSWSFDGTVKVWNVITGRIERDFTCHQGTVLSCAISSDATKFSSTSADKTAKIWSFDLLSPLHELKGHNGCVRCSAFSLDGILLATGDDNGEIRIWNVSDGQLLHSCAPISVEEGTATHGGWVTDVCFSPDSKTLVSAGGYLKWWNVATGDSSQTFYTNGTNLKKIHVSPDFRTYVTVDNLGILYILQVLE

T58A cytochrome c (from UniProt P62897 1-105) (natural protein)
apparent Km of Cytc in the reaction with cow liver COX (150 nM; 0-20 µM Cytc; oxygen consumption, polarography, 25 °C) [1]: 4.5 µM | cell-free caspase-3 activity (DEVD-R110 cleavage) in cytosolic extract of Cytc knockout fibroblasts with 20 µg/mL Cytc, reduction compared to WT (% reduction compared to WT) [2]: 50

T58I cytochrome c (from UniProt P62897 1-105) (natural protein)
apparent Km of Cytc in the reaction with cow liver COX (150 nM; 0-20 µM Cytc; oxygen consumption, polarography, 25 °C) [1]: 2.5 µM | oxygen consumption rate (turnover) of purified cow liver COX with 0-20 µM Cytc, reduction compared to WT Cytc (% reduction compared to WT) [1]: 25 | cell-free caspase-3 activity (DEVD-R110 cleavage) in cytosolic extract of Cytc knockout fibroblasts with 20 µg/mL Cytc, reduction compared to WT (% reduction compared to WT) [2]: 60

phosphomimetic T58E cytochrome c (from UniProt P62897 1-105) (natural protein)
apparent Km of Cytc in the reaction with cow liver COX (150 nM; 0-20 µM Cytc; oxygen consumption, polarography, 25 °C) [1]: 3 µM | oxygen consumption rate (turnover) of purified cow liver COX with 0-20 µM Cytc, reduction compared to WT Cytc (% reduction compared to WT) [1]: 45 | cell-free caspase-3 activity (DEVD-R110 cleavage) in cytosolic extract of Cytc knockout fibroblasts with 20 µg/mL Cytc, reduction compared to WT (% reduction compared to WT) [2]: 70

wild-type cytochrome c (rodent somatic) (from UniProt P62897 1-105) (natural protein)
apparent Km of Cytc in the reaction with cow liver COX (150 nM; 0-20 µM Cytc; oxygen consumption, polarography, 25 °C) [1]: 3 µM

Source: publication PMC6825195
